# Experimental data reported in IntAct's records for PubMed 16282588.
# B1: G/T mismatch-specific thymine DNA glycosylase (Mus musculus), P56581 (parent)
# chain: MDAEAARSYSLEQVQALYSFPFQQMMAEVPNMAVTTGQQVPAVAPNMATVTEQQVPEDAPVQEPAPEAPKRRKRKPRAAEPQEPVEPKKPATSKKSGKSTKSKEKQEKITDAFKVKRKVDRFNGVSEAELLTKTLPDILTFNLDIVIIGINPGLMAAYKGHHYPGPGNHFWKCLFMSGLSEVQLNHMDDHTLPGKYGIGFTNMVERTTPGSKDLSSKEFREGGRILVQKLQKYQPRIAVFNGKCIYEIFSKEVFGVKVKNLEFGLQPHKIPDTETLCYVMPSSSARCAQFPRAQDKVHYYIKLKDLRDQLKGIERNADVQEVQYTFDLQLAQEDAKKMAVKEEKYDPGYEAAYGGAYGENPCNGEPCGIASNGLTAHSAEPRGEAAPSDVPNGQWMAQSFAEQIPSFNNCGTREQEEESHA
# Variants of: B1
# Settings: with ncoa1_human NCOA1, Q15788
# Chain of ncoa1_human NCOA1, Q15788 (Q15788 whole entry): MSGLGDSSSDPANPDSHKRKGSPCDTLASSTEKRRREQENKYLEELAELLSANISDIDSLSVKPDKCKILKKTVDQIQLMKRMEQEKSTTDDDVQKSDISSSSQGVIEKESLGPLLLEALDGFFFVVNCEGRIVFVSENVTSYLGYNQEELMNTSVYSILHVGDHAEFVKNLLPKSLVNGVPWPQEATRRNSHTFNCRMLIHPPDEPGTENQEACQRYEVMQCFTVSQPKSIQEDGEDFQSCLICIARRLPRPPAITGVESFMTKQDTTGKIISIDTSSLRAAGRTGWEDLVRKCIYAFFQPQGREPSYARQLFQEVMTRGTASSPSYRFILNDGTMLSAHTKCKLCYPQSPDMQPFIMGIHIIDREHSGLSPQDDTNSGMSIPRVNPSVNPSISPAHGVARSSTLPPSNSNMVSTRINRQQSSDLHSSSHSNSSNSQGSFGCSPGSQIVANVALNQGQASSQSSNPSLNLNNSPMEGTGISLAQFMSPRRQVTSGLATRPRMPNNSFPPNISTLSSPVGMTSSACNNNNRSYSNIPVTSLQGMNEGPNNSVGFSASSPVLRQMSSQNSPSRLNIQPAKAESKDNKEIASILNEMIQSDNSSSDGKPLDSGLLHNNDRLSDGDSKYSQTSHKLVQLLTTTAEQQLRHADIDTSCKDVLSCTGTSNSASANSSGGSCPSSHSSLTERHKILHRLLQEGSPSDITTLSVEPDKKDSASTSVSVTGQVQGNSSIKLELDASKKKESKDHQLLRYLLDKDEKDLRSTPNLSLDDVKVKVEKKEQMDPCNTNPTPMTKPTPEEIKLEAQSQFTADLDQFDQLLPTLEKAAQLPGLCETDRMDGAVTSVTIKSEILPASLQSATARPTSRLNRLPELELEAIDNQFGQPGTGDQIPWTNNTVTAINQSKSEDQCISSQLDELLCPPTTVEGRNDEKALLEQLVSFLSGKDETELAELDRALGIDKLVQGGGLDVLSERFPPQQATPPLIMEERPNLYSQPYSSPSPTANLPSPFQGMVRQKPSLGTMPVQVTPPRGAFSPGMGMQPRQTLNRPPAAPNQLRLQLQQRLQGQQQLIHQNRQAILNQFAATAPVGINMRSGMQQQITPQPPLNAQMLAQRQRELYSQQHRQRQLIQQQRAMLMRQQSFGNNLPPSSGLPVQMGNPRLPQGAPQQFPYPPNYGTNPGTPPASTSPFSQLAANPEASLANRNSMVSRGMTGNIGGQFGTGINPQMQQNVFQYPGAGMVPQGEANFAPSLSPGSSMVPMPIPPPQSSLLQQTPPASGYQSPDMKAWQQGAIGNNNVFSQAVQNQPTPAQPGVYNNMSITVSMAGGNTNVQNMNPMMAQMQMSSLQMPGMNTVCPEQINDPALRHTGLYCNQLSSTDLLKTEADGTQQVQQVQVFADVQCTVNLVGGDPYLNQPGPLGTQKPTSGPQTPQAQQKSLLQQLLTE
row,Variant,effect of a mutation on the interaction
1,Y353F;Y357F,decreasing interaction strength
2,D144A;V146A;I147A,with no effect
3,Y345F;Y349F,decreasing interaction strength

# Continued, values first:
row,effect of a mutation on the interaction,Variant
1,decreasing interaction strength,Y345F;Y349F;Y353F;Y357F
2,with no effect,N151A

# Variants of: B1
# Settings: with ncoa1_human NCOA1, Q15788
# Remark: another data set of the same source
row,effect of a mutation on the interaction,Variant
1,decreasing interaction strength,Y353A;Y357A
2,decreasing interaction strength,Y345A;Y349A;Y353A;Y357A
3,decreasing interaction strength,Y345A;Y349A
